The results in this text go back to PMC4461315, “A Mutant Library Approach to Identify Improved Meningococcal Factor H Binding Protein Vaccine Antigens” (PLoS ONE, 2015).

The assay deals with T1, human complement Factor H (human, UniProt P08603 19-1231).
T1 construct: also called FH; human FH; source: bought: Complement Technologies (purified human FH)
The assay can be described thus: SPR. To be noted: both partners purified.

T1 sequence (P08603 19-1231): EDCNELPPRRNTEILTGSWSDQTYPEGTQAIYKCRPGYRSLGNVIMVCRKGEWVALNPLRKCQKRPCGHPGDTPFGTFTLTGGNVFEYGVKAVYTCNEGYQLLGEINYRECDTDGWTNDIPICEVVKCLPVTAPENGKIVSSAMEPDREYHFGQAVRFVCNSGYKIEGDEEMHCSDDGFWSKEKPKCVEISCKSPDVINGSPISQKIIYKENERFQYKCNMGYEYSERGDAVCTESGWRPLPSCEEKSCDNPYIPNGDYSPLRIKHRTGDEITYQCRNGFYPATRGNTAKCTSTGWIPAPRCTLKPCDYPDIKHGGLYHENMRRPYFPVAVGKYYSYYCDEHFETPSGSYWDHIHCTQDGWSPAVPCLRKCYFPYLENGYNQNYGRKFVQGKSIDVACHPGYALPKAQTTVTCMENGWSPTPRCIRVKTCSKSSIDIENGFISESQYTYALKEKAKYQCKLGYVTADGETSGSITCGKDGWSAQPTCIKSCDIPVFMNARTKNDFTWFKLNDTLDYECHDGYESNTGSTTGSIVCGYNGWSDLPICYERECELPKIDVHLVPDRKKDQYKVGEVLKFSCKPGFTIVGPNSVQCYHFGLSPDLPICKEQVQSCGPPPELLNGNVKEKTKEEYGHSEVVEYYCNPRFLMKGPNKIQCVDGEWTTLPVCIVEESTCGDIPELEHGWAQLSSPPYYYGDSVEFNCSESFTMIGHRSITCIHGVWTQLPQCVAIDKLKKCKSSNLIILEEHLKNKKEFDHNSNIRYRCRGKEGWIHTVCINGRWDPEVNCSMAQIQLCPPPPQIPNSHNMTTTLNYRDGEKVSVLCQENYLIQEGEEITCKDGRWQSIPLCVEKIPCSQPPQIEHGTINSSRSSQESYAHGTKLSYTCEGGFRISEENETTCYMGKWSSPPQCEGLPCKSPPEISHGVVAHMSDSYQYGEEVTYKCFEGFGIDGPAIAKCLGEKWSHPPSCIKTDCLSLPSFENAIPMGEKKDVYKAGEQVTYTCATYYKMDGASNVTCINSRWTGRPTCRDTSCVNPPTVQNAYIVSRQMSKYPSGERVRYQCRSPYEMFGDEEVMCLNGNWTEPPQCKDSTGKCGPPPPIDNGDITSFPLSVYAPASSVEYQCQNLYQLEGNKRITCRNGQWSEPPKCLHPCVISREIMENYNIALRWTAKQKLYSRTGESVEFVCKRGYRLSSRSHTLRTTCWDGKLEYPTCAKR

B1: wild-type FHbp ID 1, soluble recombinant (natural protein)
chain: CSSGGGGVAADIGAGLADALTAPLDHKDKGLQSLTLDQSVRKNEKLKLAAQGAEKTYGNGDSLNTGKLKNDKVSRFDFIRQIEVDGQLITLESGEFQVYKQSHSALTAFQTEQIQDSEHSGKMVAKRQFRIGDIAGEHTSFDKLPEGGRATYRGTAFGSDDAGGKLTYTIDFAAKQGNGKIEHLKSPELNVDLAAADIKPDGKRHAVISGSVLYNQAEKGSYSLGIFGGKAQEVAGSAEVKTVNGIRHIGLAAKQ
notes: also called WT
In the case of B1, the Kd (commonly a measure of binding affinity in units of concentration) was determined as 17 nM.
